Our source for the t½ half life values is US20090280138A1 (OXFORD BIOMEDICA UK, published 2009).

For experiment [1], the target named is T1, MHC class I molecule HLA-A*0201 (iTopia plate-bound monomer) (biotin (bound to streptavidin-coated plate)).
T1 construct: also called A2
In words: iTopia off-rate assay, 37 C; fit R^2 0.68. As for the experimental part:
(§1) The 9 mers were tested for Peptide Binding, Off Rate and Affinity using iTopia Epitope Discovery System in accordance with the manufacturer's instructions. Briefly, 96 well microtitre plates coated with MHC molecules representing different MHC alleles are used to identify candidate peptides. […] Determinations are performed in duplicate using an ELISA plate reader and included allele specific positive controls.
(§2) A one-phase exponential decay curve, with a plateau given equal to 0, was generated using GraphPad Prism® software, which calculated the t1/2 and goodness-of-fit, as measured by r², for each peptide.

Experiment [2] has as its target T2, MHC class I molecule HLA-A*0101 (iTopia plate-bound monomer) (biotin (bound to streptavidin-coated plate)).
T2 construct: also called A1
In words: iTopia off-rate assay, 37 C; fit R^2 0.87. As for the experimental part:
as §1, §2

Experiment [3] addresses T1, MHC class I molecule HLA-A*0201 (iTopia …). In words: iTopia off-rate assay, 37 C; fit R^2 0.91. The method, then: as §1, §2
For experiment [4] the target is unchanged. Description: iTopia off-rate assay, 37 C; fit R^2 0.63. The method, then: as §1, §2
In experiment [5] the target is T3, MHC class I molecule HLA-B*0702 (iTopia plate-bound monomer) (biotin (bound to streptavidin-coated plate)).
T3 construct: Commercial iTopia system; also called B7
In words: iTopia off-rate assay, 37 C; fit R^2 0.84. As for the experimental part:
as §1, §2

Experiment [6] deals with T3, MHC class I molecule HLA-B*0702 (iTopia …). In words: iTopia off-rate assay, 37 C; fit R^2 0.11. As for the experimental part:
as §1, §2

For experiment [7], the target named is T1, MHC class I molecule HLA-A*0201 (iTopia …). Description: iTopia off-rate assay, 37 C; fit R^2 0.49. The method, then:
as §1, §2

The target in experiment [8] is T3, MHC class I molecule HLA-B*0702 (iTopia …). Description: iTopia off-rate assay, 37 C; fit R^2 0.36. The method, then:
as §1, §2

Experiment [9] has the same target. Description: iTopia off-rate assay, 37 C; fit R^2 0.26. As for the experimental part: as §1, §2
The target of experiment [10] is T2, MHC class I molecule HLA-A*0101 (iTopia …). Description: iTopia off-rate assay, 37 C; fit R^2 0.88. As for the experimental part:
as §1, §2

Experiment [11] has as its target T1, MHC class I molecule HLA-A*0201 (iTopia …). Description: iTopia off-rate assay, 37 C; fit R^2 0.95. The method, then:
as §1, §2

In experiment [12] the target is T3, MHC class I molecule HLA-B*0702 (iTopia …). In words: iTopia off-rate assay, 37 C; fit R^2 0.15. As for the experimental part: as §1, §2
Experiment [13] concerns the target T1, MHC class I molecule HLA-A*0201 (iTopia …). In words: iTopia off-rate assay, 37 C; fit R^2 0.6. The method, then:
as §1, §2

The target is the same in experiment [14]. In words: iTopia off-rate assay, 37 C; fit R^2 0.66. The method, then:
as §1, §2

The target in experiment [15] is T3, MHC class I molecule HLA-B*0702 (iTopia …). In words: iTopia off-rate assay, 37 C; fit R^2 0.22. As for the experimental part: as §1, §2
In experiment [16] the target is T1, MHC class I molecule HLA-A*0201 (iTopia …). In words: iTopia off-rate assay, 37 C; fit R^2 0.87. As for the experimental part:
as §1, §2

For experiment [17], the target named is T3, MHC class I molecule HLA-B*0702 (iTopia …). Description: iTopia off-rate assay, 37 C; fit R^2 0.67. The method, then: as §1, §2
Experiment [18] has the same target. Description: iTopia off-rate assay, 37 C; fit R^2 0.91. As for the experimental part:
as §1, §2

Experiment [19] deals with T1, MHC class I molecule HLA-A*0201 (iTopia …). In words: iTopia off-rate assay, 37 C; fit R^2 0.98. The method, then: as §1, §2
Experiment [20] has the same target. Description: iTopia off-rate assay, 37 C; fit R^2 0.9. The method, then:
as §1, §2

Experiment [21] addresses T4, MHC class I molecule HLA-A*0301 (iTopia plate-bound monomer) (biotin (bound to streptavidin-coated plate)).
T4 construct: also called A3
In words: iTopia off-rate assay, 37 C; fit R^2 0.58. The method, then:
as §1, §2

Experiment [22] concerns the target T2, MHC class I molecule HLA-A*0101 (iTopia …). In words: iTopia off-rate assay, 37 C; fit R^2 0.25. The method, then:
as §1, §2

In experiment [23] the target is T1, MHC class I molecule HLA-A*0201 (iTopia …). In words: iTopia off-rate assay, 37 C; fit R^2 0.33. The method, then: as §1, §2
The target of experiment [24] is T3, MHC class I molecule HLA-B*0702 (iTopia …). In words: iTopia off-rate assay, 37 C; fit R^2 0.42. As for the experimental part:
as §1, §2

Experiment [25] has as its target T4, MHC class I molecule HLA-A*0301 (iTopia …). Description: iTopia off-rate assay, 37 C; fit R^2 0.01. As for the experimental part:
as §1, §2

Experiment [26] addresses T1, MHC class I molecule HLA-A*0201 (iTopia …). Description: iTopia off-rate assay, 37 C; fit R^2 0.46. The method, then:
as §1, §2

The target of experiment [27] is T3, MHC class I molecule HLA-B*0702 (iTopia …). In words: iTopia off-rate assay, 37 C; fit R^2 0.23. As for the experimental part: as §1, §2
Experiment [28] shares this target. Description: iTopia off-rate assay, 37 C; fit R^2 0.02. The method, then:
as §1, §2

Experiment [29] concerns the target T1, MHC class I molecule HLA-A*0201 (iTopia …). In words: iTopia off-rate assay, 37 C; fit R^2 0.67. As for the experimental part:
as §1, §2

The target is the same in experiment [30]. Description: iTopia off-rate assay, 37 C; fit R^2 0.89. As for the experimental part:
as §1, §2

Experiment [31] concerns the target T3, MHC class I molecule HLA-B*0702 (iTopia …). Description: iTopia off-rate assay, 37 C; fit R^2 0.88. As for the experimental part: as §1, §2
Experiment [32] deals with T1, MHC class I molecule HLA-A*0201 (iTopia …). Description: iTopia off-rate assay, 37 C; fit R^2 0.74. The method, then: as §1, §2
The target in experiment [33] is T2, MHC class I molecule HLA-A*0101 (iTopia …). In words: iTopia off-rate assay, 37 C; fit R^2 0.97. The method, then: as §1, §2
The target of experiment [34] is T4, MHC class I molecule HLA-A*0301 (iTopia …). In words: iTopia off-rate assay, 37 C; fit R^2 0.88. As for the experimental part:
as §1, §2

The target of experiment [35] is T3, MHC class I molecule HLA-B*0702 (iTopia …). In words: iTopia off-rate assay, 37 C; fit R^2 0.66. The method, then:
as §1, §2

In experiment [36] the target is T1, MHC class I molecule HLA-A*0201 (iTopia …). Description: iTopia off-rate assay, 37 C; fit R^2 0.59. As for the experimental part: as §1, §2
Experiment [37] deals with T4, MHC class I molecule HLA-A*0301 (iTopia …). Description: iTopia off-rate assay, 37 C; fit R^2 0.95. As for the experimental part:
as §1, §2

The target is the same in experiment [38]. In words: iTopia off-rate assay, 37 C; fit R^2 0.94. As for the experimental part: as §1, §2
Experiment [39] addresses T3, MHC class I molecule HLA-B*0702 (iTopia …). Description: iTopia off-rate assay, 37 C; fit R^2 0.75. The method, then:
as §1, §2

Experiment [40] concerns the target T1, MHC class I molecule HLA-A*0201 (iTopia …). Description: iTopia off-rate assay, 37 C; fit R^2 0.65. The method, then: as §1, §2

RDACRDHME (also called Peptide No 195) [5T4 9-mer peptide 195 RDACRDHME] returned a t½ half life in [1] of 3 h.
Turning to VPTDLPAYV (also called Peptide No 43) [5T4 9-mer peptide 43 VPTDLPAYV], the t½ half life amounted to 1.8 h in experiment [2] and 1.1 h in experiment [3].
In the case of LAVLPAGAF (also called Peptide No 52) [5T4 9-mer peptide 52 LAVLPAGAF], the t½ half life came out at 3.6 h in experiment [4] and 0.3 h in [5].
Turning to PPLAELAAL (also called Peptide No 58) [5T4 9-mer peptide 58 PPLAELAAL], the t½ half life in experiment [6] was found to be 3 h; in experiment [7] it was 4.6 h.
In turn, ADPRLTNLS (also called Peptide No 204) [5T4 9-mer peptide 204 ADPRLTNLS] had a t½ half life in experiment [8] of 3.1 h.
As for APSPLVELI (also called Peptide No 86) [5T4 9-mer peptide 86 APSPLVELI], in experiment [9], the t½ half life worked out at 1.6 h.
Consider FSSSAPFLA (also called Peptide No 21) [5T4 9-mer peptide 21 FSSSAPFLA], for which the t½ half life worked out at 0.2 h in experiment [10] and 0.3 h in experiment [11].
With DGRLRLARL (also called Peptide No 7) [5T4 9-mer peptide 7 DGRLRLARL], in experiment [12], the t½ half life was 2.6 h.
Turning to MHNIRDACR (also called Peptide No 193) [5T4 9-mer peptide 193 MHNIRDACR], in experiment [13], the t½ half life turned out to be 5.3 h.
For the molecule GGCSRGPAA (also called Peptide No 2) [5T4 9-mer peptide 2 GGCSRGPAA], the t½ half life was 0.5 h in experiment [14] and 1.3 h in [15].
Turning to ASVSAPSPL (also called Peptide No 84) [5T4 9-mer peptide 84 ASVSAPSPL], the figures for the t½ half life in [16] and in experiment [17] were 0.4 h and 6 min, respectively.
With GAFARRPPL (also called Peptide No 55) [5T4 9-mer peptide 55 GAFARRPPL], the values for the t½ half life in experiment [18] and in [19] were 1.3 h and 1.9 h, respectively.
With VLPAGAFAR (also called Peptide No 53) [5T4 9-mer peptide 53 VLPAGAFAR], the values for the t½ half life in [20] and in experiment [21] were 2.2 h and 0.5 h, respectively.
Consider LAELAALNL (also called Peptide No 59) [5T4 9-mer peptide 59 LAELAALNL], for which the t½ half life in experiment [22] was determined as 2.5 h; in experiment [23] it was 13.1 h; in experiment [24], 3.2 h.
Consider VVAALLAGR (also called Peptide No 100) [5T4 9-mer peptide 100 VVAALLAGR], for which the t½ half life in experiment [25] amounted to 8.1 h.
In experiment [26], ILNHIVPPE (also called Peptide No 90) [5T4 9-mer peptide 90 ILNHIVPPE] gave a t½ half life of 13 h.
Turning to SPTSSASSF (also called Peptide No 17) [5T4 9-mer peptide 17 SPTSSASSF], the t½ half life in experiment [27] was found to be 2.6 h.
With APFLASAVS (also called Peptide No 23) [5T4 9-mer peptide 23 APFLASAVS], the t½ half life in experiment [28] stood at 2.6 h; in experiment [29], 1.6 h.
Consider LPSLRQLDL (also called Peptide No 71) [5T4 9-mer peptide 71 LPSLRQLDL], for which the t½ half life in [30] turned out to be 1.4 h; in experiment [31] it was 3.1 h.
Turning to HMEGYHYRY (also called Peptide No 198) [5T4 9-mer peptide 198 HMEGYHYRY], the t½ half life came to 6.3 h in experiment [32], 1.3 h in experiment [33] and 1.7 h in experiment [34].
As for RLRLARLAL (also called Peptide No 8) [5T4 9-mer peptide 8 RLRLARLAL], the t½ half life in experiment [35] worked out at 3.1 h; in experiment [36] it was 7.2 h; in [37], 0.2 h.
Take RLDEVRAGA (also called Peptide No 65) [5T4 9-mer peptide 65 RLDEVRAGA]: the t½ half life in experiment [38] stood at 0.2 h; in experiment [39], 0.2 h; in experiment [36] it was 9.7 h.
In experiment [40], SSFSSSAPF (also called Peptide No 20) [5T4 9-mer peptide 20 SSFSSSAPF] had a t½ half life of 0.4 h.
